Biological target: mature type GnT-V
Experiment: cell-based or functional assay

- GnT-V activity in culture solution, PS-1 ΔE9 cells against control cells: 4 fold
- ratio of the GnT-V activity in culture solution (extracellular) to that in the cell, PS-1 ΔE9 cells: 3.5
- ratio of the GnT-V activity in culture solution (extracellular) to that in the cell, PS-1 ΔE9 cells against control cells: 3 fold
- ratio of the GnT-V activity in culture solution (extracellular) to that in the cell, control cells without high expression of variant presenilin-1: 1.2
Substance: γ-secretase (enzyme)

— patent US20050148516A1
